Test system: K4 kissing-loop RNA reporter
Experiment: apparent KD of K4 kissing-loop reporter; higher = weaker reporter binding
Details: Eterna round: R107
Description: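 RNA-MaP round R107: designed RNA switches with theophylline, tryptophan, arginine or FMN aptamers are transcribed on-chip within common flanks. They are titrated with a labelled K4 kissing-loop RNA reporter in RNA-MaP buffer (100 mM Tris pH 7.5, 80 mM KCl, 4 mM MgCl2), without ligand or with the indicated ligand. Median apparent KD per design.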

[1] = input ligand: theophylline 20 uM
[2] = input ligand: tryptophan 2.4 mM
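Further: bound reporter read as fluorescence of individual clusters on recovered sequencing chips by microscopy, with normalized cluster intensities fitted with a binding model.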

| Sequence | apparent KD of K4 kissing-loop reporter (input ligand: FMN 200 uM) [nM] | apparent KD of K4 kissing-loop reporter (input ligand: arginine 13.2 mM) [nM] | apparent KD of K4 kissing-loop reporter (input ligand: none) [nM] | apparent KD of K4 kissing-loop reporter [1] [nM] | apparent KD of K4 kissing-loop reporter [2] [nM] |
| --- | --- | --- | --- | --- | --- |
| AUUUUUUUGUCAGGAUAUUAGUGUUGGUUUGGUUUGUUAGUGAUGUUGAUAUUUGUUUUAUGUAUUUAAGAAGGGAUUUAGCGGU [wxooemullin] | 420 | 379 | 364 | 458 | 293 |
| CAAACUCUGACGGCCGCCACUAAUCGUGUAACAGUGAUGUUGUUACAUCAAAGAUGGGUUGCGUGUAGGACCGGGUCGACGCAAA [theeternabot_exclusion_KL_Trp_B_48] | 131 | 120 | 120 | 111 | 124 |
| CAAAUAUGCGGUAGGUUCAAGCGCUGGGAAGGAGCGCAGAUGACUGCAGGUAGGUCGCCCAGUGAUGUUGGGCUUUCCACCUAUU [Edbeaan] | 123 | 124 | 132 | 146 | 121 |
| CAAUGAGUAUAAGAUGAUAUCAUCACAGAAGGAGCGAGUGAUAACUCAGGUAGGUCGCUGAAUUUAUCGAGUGAUGUUCGAUAGA [whbob_SS_Arginine_A_sa118] | 207 | 158 | 199 | 175 | 170 |
| CACCAUGAAUUCUCUAGGAGUGAUGUUUUUCGAGGACCGGUACGGCCGCCACUCGGACCAGGAACGUGGGAGCGGCGAAAAGACU [ttmullin] | 656 | 438 | 688 | 494 | 373 |
| CACCGCAACUGAAGGAGCGCGCCAGUGAUGUUGGACGGCUUUGUCAAGGAAACUGCACCGGUGCAGGUAGGUCGCAGUUCGCGGC [Ededisa] | 319 | 256 | 366 | 278 | 259 |
| CACCGGACGAAAGAUACCAGUUACUAUAUUAGGGUGCCUUGGCUAGUGAUGUUAGAGAGUAACCCUUGGCAGCUUUGGUACUUAU [theeternabot_exclusion_KL_Theo_B_21] | 380 | 367 | 390 | 319 | 335 |
| CACGAUGAAUUCUCUAGGAGUGAUGUUUUUCGAGGACCGGUACGGCCGCCACUCGGACGACGAGCGUGGUAGCGGCGUGAAGACU [zamullin] | 365 | 276 | 625 | 459 | 452 |
| CACGGUUAUACGGCCGCCACUGAUUGCGUUGCAGUGAUGUUGCACGCGUCCGACUACACCUCAUUCAGGACCGGGUAGACAUGCA [theeternabot_exclusion_KL_Trp_B_11] | 238 | 163 | 230 | 208 | 246 |
| CACUCGGUAUCAGAUACCAGACUAACGAUACCGAGUGUAUCGGGUAGUGAUGUUACCAUAGUCCCUUGGCAGCUGAUAUACCAUA [Theo B SS t9] | 249 | 242 | 265 | 269 | 223 |
| CAGAAGCAUUCGGCCGCCACUCCAGUGAUGUUGGAGCGGGAGGGCCUUAAACCUCGAGGCUGCUGGAGGACCGGGAAUGUUGAGG [Beerso] | 166 | 164 | 168 | 173 | 269 |
| CAGAUCACAGAGUGAUGUUCUGUGUCCGAAGGAGCGCGCUUCGGCGCAGGUAGGUCGCGGAUACAGUUGACGUACCAUCUAGACA [Arg A Ex t3c] | 446 | 383 | 583 | 485 | 507 |
| CAUACGCAUGGAGGAUAUGAGAUUUCUCAUAUUAUUUAAUAUUCUCAGUGAUGUUGAGAAUUUAACUCAGAAGGCCAUGUGUAUG [Ex FMN B 5] | 316 | 149 | 156 | 154 | 152 |
| CAUACGCAUGGAGGAUAUGAGAUUUUUCAUAUUACUUUUUAUUCUCAGUGAUGUUGGGAUUUGUAAUCAGAAGGCCAUGUGUAUG [#10 K4 FMN B Exclusion] | 174 | 93.2 | 99.8 | 110 | 98.1 |
| CAUACGCAUGGAGGAUAUGGGAUUUCUCAUAUUAACCUGUAUCAGGUAUCUCAGUGAUGUUGAGACUCAGAAGGCCAUGUGUAUG [Ex FMN B 25] | 494 | 303 | 364 | 354 | 344 |
| CAUACUAUCAGAAGGAGCGUGGAAUAUUCAUCUGUAUCUAAUACGAGUGAUGUUCGUAAUUCACAGGUAGGUCGCUGAUUAAUAC [whbob_Ex_Arginine_B_2th159] | 265 | 272 | 267 | 269 | 219 |
| CAUAGGAAACUAUGUUUCUCUCUGACUGAAGGAGCGCGUGAAAACGCAGGUAGGUCGCAGAAUUUAACAGAGAGUGAUGUUCUCA [Ex Arginine A K4 12] | 457 | 396 | 567 | 633 | 430 |
| CAUAUACAAGUGAUGUUUGUACUAACCGAAGGAGCGUCGUUGAAGACAGGUAGGUCGCGGUUUAAGUUAGAUUAUAUAAUUCCAC [JR_Nu_SSArginiA_Sub027] | 705 | 535 | 892 | 715 | 509 |
| CCAAUCUGUUACGAUACCAGUCAAAGAUAUUUGAUCAAUACCCUCACCGAGUGAUGUUCGGACCCUUGGCAGCGUCUGGGAUAGG [ceevmullin] | 228 | 267 | 266 | 281 | 193 |
| CCACCAAGCACGGCCGCCACUAAAUCUGCAAGUAACCUAAAGUGAUGUUUUAUCUUGCGUCAGACUAGGACCGGGUGUCAAGUUA [theeternabot_sameState_KL_Trp_B_45] | 420 | 408 | 387 | 704 | 755 |
| CCAGGAUGAUGAGGAUGAUGAAUUACUGAAGGAGCGCAUAUGGUUGCAGGUAGGUCGCGGUGAACAAGUAUAGUGAUGUUAUGCC [SSArgA.W] | 575 | 615 | 795 | 1160 | 545 |
